Here are results for two molecules from PMC9896810, “Crk proteins activate the Rap1 guanine nucleotide exchange factor C3G by segregated adaptor-dependent and -independent mechanisms” (Cell Communication and Signaling : CCS, 2023).

In one experiment the target is T1, C3G-APAA (human, UniProt Q13905-1 4-1077, P283A | P284A | L286 | P287 | P289A | P540A | P541A | L543A | P544A | K546A | …).
T1 construct: human C3G isoform a, residues 4-1077; only P2 kept, P1, P3 and P4 mutated to Ala; source: E. coli BL21 (DE3), purified (IMAC, TEV digestion, reversed IMAC, SEC); not shown: His, N-terminal, cleaved; Halo, N-terminal, cleaved
T1 sequence (looked up): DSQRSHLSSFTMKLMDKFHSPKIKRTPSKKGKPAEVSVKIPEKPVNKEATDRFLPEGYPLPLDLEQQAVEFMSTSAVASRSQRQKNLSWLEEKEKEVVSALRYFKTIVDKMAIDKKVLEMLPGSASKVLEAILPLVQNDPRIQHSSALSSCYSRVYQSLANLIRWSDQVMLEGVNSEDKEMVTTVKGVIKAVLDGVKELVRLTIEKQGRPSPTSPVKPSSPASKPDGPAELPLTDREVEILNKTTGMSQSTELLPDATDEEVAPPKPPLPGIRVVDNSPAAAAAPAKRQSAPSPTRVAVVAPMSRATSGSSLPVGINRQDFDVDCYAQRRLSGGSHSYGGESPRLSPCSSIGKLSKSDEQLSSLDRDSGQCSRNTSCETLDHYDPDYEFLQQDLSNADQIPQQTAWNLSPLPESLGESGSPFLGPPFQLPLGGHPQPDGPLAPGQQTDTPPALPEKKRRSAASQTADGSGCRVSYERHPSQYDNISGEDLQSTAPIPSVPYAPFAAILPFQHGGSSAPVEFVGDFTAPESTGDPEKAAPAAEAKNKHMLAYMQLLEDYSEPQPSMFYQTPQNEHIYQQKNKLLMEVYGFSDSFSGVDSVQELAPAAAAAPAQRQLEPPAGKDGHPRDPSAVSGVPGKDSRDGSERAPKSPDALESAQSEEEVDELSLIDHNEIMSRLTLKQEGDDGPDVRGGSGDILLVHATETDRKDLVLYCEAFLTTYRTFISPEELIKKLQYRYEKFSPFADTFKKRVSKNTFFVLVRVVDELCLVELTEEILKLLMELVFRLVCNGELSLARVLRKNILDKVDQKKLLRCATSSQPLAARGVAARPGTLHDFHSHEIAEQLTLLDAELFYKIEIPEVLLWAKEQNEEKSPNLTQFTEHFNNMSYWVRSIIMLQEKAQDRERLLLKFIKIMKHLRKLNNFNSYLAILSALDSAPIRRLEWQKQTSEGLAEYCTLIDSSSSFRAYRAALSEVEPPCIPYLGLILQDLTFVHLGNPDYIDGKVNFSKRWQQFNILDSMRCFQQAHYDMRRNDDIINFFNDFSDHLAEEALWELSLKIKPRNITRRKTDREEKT
Description: ITC; single-PRM mutant of C3G in the cell titrated with CrkL or CrkL-SH3N, 25 °C, 300 mM NaCl, pH 7.5; SEDPHAT, 1:1 heteroassociation model; N is the competent fraction of C3G. Particulars: both partners purified. On the technique in general: In ITC the heat of successive injections is recorded.

In experiment [1] the target is T2, Src-phosphorylated C3G-AAPA (human, UniProt Q13905-1 4-1077, P283A | P284A | L286 | P287 | P289A | P453A | P454A | L456A | P457A | K459A | …, phosphotyrosines from phosphorylation in vitro with Src (sites not given)).
T2 construct: human C3G isoform a, residues 4-1077; only P3 kept, P1, P2 and P4 mutated to Ala; also called pC3G-AAPA; source: E. coli BL21 (DE3), purified; phosphorylated in vitro with the recombinant kinase domain of Src, then SEC; not shown: His, N-terminal, cleaved; Halo, N-terminal, cleaved
T2 sequence (looked up): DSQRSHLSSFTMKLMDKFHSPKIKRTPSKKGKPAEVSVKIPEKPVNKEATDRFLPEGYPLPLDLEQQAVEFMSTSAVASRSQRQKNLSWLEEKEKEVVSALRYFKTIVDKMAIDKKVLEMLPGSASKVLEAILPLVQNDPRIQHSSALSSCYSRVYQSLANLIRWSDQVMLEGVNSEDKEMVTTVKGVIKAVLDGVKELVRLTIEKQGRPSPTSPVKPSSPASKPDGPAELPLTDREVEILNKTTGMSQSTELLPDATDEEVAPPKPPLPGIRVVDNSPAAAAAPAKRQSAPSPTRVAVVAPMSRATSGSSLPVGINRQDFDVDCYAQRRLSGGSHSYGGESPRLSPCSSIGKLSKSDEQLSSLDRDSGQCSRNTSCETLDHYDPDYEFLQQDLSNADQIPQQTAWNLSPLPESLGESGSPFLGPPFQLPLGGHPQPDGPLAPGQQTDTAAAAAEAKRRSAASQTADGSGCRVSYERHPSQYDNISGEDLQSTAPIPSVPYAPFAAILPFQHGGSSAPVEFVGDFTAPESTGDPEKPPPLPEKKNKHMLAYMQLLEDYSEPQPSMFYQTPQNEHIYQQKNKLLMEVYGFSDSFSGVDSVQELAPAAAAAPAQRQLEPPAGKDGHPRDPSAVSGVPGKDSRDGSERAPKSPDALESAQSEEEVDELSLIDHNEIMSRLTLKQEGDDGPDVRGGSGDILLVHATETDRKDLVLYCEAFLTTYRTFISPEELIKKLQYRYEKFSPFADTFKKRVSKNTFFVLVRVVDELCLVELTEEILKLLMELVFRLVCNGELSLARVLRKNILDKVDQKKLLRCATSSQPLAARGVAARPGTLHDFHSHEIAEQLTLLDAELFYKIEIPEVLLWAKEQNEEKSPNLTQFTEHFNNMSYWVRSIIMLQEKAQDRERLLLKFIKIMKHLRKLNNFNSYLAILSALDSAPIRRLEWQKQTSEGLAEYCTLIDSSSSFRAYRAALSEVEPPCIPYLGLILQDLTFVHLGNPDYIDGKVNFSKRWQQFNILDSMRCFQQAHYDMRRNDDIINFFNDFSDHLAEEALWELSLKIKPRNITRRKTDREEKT
The description is as above. Conditions: both partners purified.

B1: CrkL (full-length) (natural protein, human, UniProt P46109 1-303, looked up)
chain: MSSARFDSSDRSAWYMGPVSRQEAQTRLQGQRHGMFLVRDSSTCPGDYVLSVSENSRVSHYIINSLPNRRFKIGDQEFDHLPALLEFYKIHYLDTTTLIEPAPRYPSPPMGSVSAPNLPTAEDNLEYVRTLYDFPGNDAEDLPFKKGEILVIIEKPEEQWWSARNKDGRVGMIPVPYVEKLVRSSPHGKHGNRNSNSYGIPEPAHAYAQPQTTTPLPAVSGSPGAAITPLPSTQNGPVFAKAIQKRVPCAYDKTALALEVGDIVKVTRMNINGQWEGEVNGRKGLFPFTHVKIFDPQNPDENE
notes: human CrkL, residues 1-303, in pETEV15b; also called Crk-like protein; source: E. coli BL21 (DE3), purified (IMAC, TEV digestion, SEC); not shown: His, N-terminal, cleaved
What is called Kd is the concentration at which binding is half-saturated. Broadly, the stoichiometry N is a count of units in the complex or per binding partner. With B1, in the experiment with C3G-APAA, binding was put at a Kd of 1.2 µM and the “stoichiometry N” value came to 0.78.

B2: CrkL-SH3N (domain or fragment, human, UniProt P46109 125-182, looked up)
chain: LEYVRTLYDFPGNDAEDLPFKKGEILVIIEKPEEQWWSARNKDGRVGMIPVPYVEKLV
notes: human CrkL, SH3N domain, residues 125-182, in pETEV15b; source: E. coli BL21 (DE3), purified (IMAC, TEV digestion, SEC); not shown: His, N-terminal, cleaved
As for B2, in experiment [1], the Kd amounted to 2.1 µM and the “stoichiometry N” value came out at 0.08.
